Reference: CN115558029A (LILING BIOLOGICAL PHARMACEUTICAL SUZHOU CO LTD, dated 2023)

What was measured:
[1] = biological target: PD-1 on Jurkat/PD-1细胞(Promega) (UniProt Q15116 25-288, limits assumed); test: cell-based or functional assay
[2] = biological target: T1, 人PD-1蛋白(北京百普赛斯，货号PD1-H5221) (human, UniProt Q15116 25-167); test: binding ELISA on coated PD-1 protein
T1 construct: Bought recombinant protein coated on the ELISA plate; also called PD-1抗原

Binder	EC50, PD-1报告基因法 [1]	binding result [2]	EC50 [2]
抗PD-1/IL-8-2 (bispecific antibody, human IgG4 S228P, kappa) heavy: not shown light: EIVLTQSPGTLSLSPGERATLSCRASQSISSSYLAWYQQKPGQAPRLLIYGPSSRATGIPDRFSGSGSGTDFTLTISRLEPEDFAVYYCQQYAGSLTFGPGTKVDIKRTVAAPSVFIFPPSDEQLKSGTASVVCLLNNFYPREAKVQWKVDNALQSGNSQESVTEQDSKDSTYSLSSTLTLSKADYEKHKVYACEVTHQGLSSPVTKSFNRGEC	1.3 µg/mL	–	–
抗PD-1/IL-8-1 (bispecific antibody, human IgG4 S228P, kappa, also called antiPD-1/IL-8-1) heavy: not shown light: EIVLTQSPGTLSLSPGERATLSCRASQSISSSYLAWYQQKPGQAPRLLIYGPSSRATGIPDRFSGSGSGTDFTLTISRLEPEDFAVYYCQQYAGSLTFGPGTKVDIKRTVAAPSVFIFPPSDEQLKSGTASVVCLLNNFYPREAKVQWKVDNALQSGNSQESVTEQDSKDSTYSLSSTLTLSKADYEKHKVYACEVTHQGLSSPVTKSFNRGEC	–	binds	–
抗PD-1/PSCK9-2 (bispecific antibody, human IgG4 S228P, kappa, also called antiPD-1/PSCK9-2; 抗PD-1/PCSK9-2) heavy: not shown light: ESALTQPASVSGSPGQSITISCTGTSSDVGGYNSVSWYQQHPGKAPKLMIYEVSNRPSGVSNRFSGSKSGNTASLTISGLQAEDEADYYCNSYTSTSMVFGGGTKLTVLRTVAAPSVFIFPPSDEQLKSGTASVVCLLNNFYPREAKVQWKVDNALQSGNSQESVTEQDSKDSTYSLSSTLTLSKADYEKHKVYACEVTHQGLSSPVTKSFNRGEC	4 µg/mL	–	0.0641 µg/mL
抗PD-1/TGF-β-1 (bispecific antibody, human IgG4 S228P, kappa, also called antiPD-1/TGF-β-1) heavy: not shown light: ETVLTQSPGTLSLSPGERATLSCRASQSLGSSYLAWYQQKPGQAPRLLIYGASSRAPGIPDRFSGSGSGTDFTLTISRLEPEDFAVYYCQQYADSPITFGQGTRLEIKRTVAAPSVFIFPPSDEQLKSGTASVVCLLNNFYPREAKVQWKVDNALQSGNSQESVTEQDSKDSTYSLSSTLTLSKADYEKHKVYACEVTHQGLSSPVTKSFNRGEC	1.7 µg/mL	–	0.17 µg/mL
抗PD-1/TGF-β-3 (bispecific antibody, human IgG4 S228P, kappa, also called antiPD-1/TGF-β-3) heavy: not shown light: ETVLTQSPGTLSLSPGERATLSCRASQSLGSSYLAWYQQKPGQAPRLLIYGASSRAPGIPDRFSGSGSGTDFTLTISRLEPEDFAVYYCQQYADSPITFGQGTRLEIKRTVAAPSVFIFPPSDEQLKSGTASVVCLLNNFYPREAKVQWKVDNALQSGNSQESVTEQDSKDSTYSLSSTLTLSKADYEKHKVYACEVTHQGLSSPVTKSFNRGEC	–	binds	–
抗PD-1/TGF-β-2 (bispecific antibody, human IgG4 S228P, kappa, also called antiPD-1/TGF-β-2) heavy: not shown light: ETVLTQSPGTLSLSPGERATLSCRASQSLGSSYLAWYQQKPGQAPRLLIYGASSRAPGIPDRFSGSGSGTDFTLTISRLEPEDFAVYYCQQYADSPITFGQGTRLEIKRTVAAPSVFIFPPSDEQLKSGTASVVCLLNNFYPREAKVQWKVDNALQSGNSQESVTEQDSKDSTYSLSSTLTLSKADYEKHKVYACEVTHQGLSSPVTKSFNRGEC	–	binds	–
